The supplement of paper PMC9112550, “Optimization of the antimicrobial peptide Bac7 by deep mutational scanning” (BMC Biology, 2022)
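Note: peptides expressed intracellularly from a pBAD plasmid library in pooled LB shake-flask culture, induced with 0.3% L-arabinose, DNA abundance read by NGS, three biological replicates, DESeq2 with apeglm shrinkage.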

These sequences were tested on Escherichia coli TOP10 (assay: shrunken log2 fold change of peptide-encoding DNA abundance (4.5 h post-induction vs induction); higher = less antimicrobial activity (less host growth inhibition)). Settings: time post-induction: 4.5 h; library: site-saturation at positions 5, 18, 19, 20.
In the case of RRIRDRPPRLPRPRPRPCMIPRP, the “shrunken log2 fold change” value is reported as 0.28. In the case of RRIRSRPPRLPRPRPRPTVVPRP, the “shrunken log2 fold change” value is reported as -0.112. In the case of RRIRMRPPRLPRPRPRPNTIPRP, the “shrunken log2 fold change” value is reported as -0.3. RRIRNRPPRLPRPRPRPLHPPRP was tested, and the “shrunken log2 fold change” value was 0.0757. For RRIRFRPPRLPRPRPRPTTIPRP, the “shrunken log2 fold change” value was -0.548. For RRIRPRPPRLPRPRPRPPKMPRP, the “shrunken log2 fold change” value was 0.401. With RRIRQRPPRLPRPRPRPDDLPRP the “shrunken log2 fold change” value was 0.0248. For RRIRRRPPRLPRPRPRPSILPRP, the “shrunken log2 fold change” value was 0.197. RRIRSRPPRLPRPRPRPQMIPRP was tested, and the “shrunken log2 fold change” value was -0.292. With RRIRVRPPRLPRPRPRPILQPRP the “shrunken log2 fold change” value was -0.399. With RRIRDRPPRLPRPRPRPFYGPRP the “shrunken log2 fold change” value was -0.108. With RRIRCRPPRLPRPRPRPCFYPRP the “shrunken log2 fold change” value was -0.675. For RRIRERPPRLPRPRPRPRIFPRP, the “shrunken log2 fold change” value was -0.0907. RRIRQRPPRLPRPRPRPQHQPRP was tested, and the “shrunken log2 fold change” value was 0.26. For RRIRWRPPRLPRPRPRPLTFPRP, the “shrunken log2 fold change” value was -0.501. With RRIRNRPPRLPRPRPRPLYYPRP the “shrunken log2 fold change” value was -0.0384. RRIRRRPPRLPRPRPRPHFSPRP was tested, and the “shrunken log2 fold change” value was -0.187. RRIRTRPPRLPRPRPRPDFHPRP was tested, and the “shrunken log2 fold change” value was -0.336. With RRIRVRPPRLPRPRPRPPGAPRP the “shrunken log2 fold change” value was 0.595. In the case of RRIRTRPPRLPRPRPRPCVCPRP, the “shrunken log2 fold change” value is reported as -0.206. For RRIRGRPPRLPRPRPRPTCQPRP, the “shrunken log2 fold change” value was 0.71. For RRIRWRPPRLPRPRPRPHCDPRP, the “shrunken log2 fold change” value was 0.135. In the case of RRIRHRPPRLPRPRPRPIHYPRP, the “shrunken log2 fold change” value is reported as -0.0138. For RRIRSRPPRLPRPRPRPEQRPRP, the “shrunken log2 fold change” value was -0.011. With RRIRNRPPRLPRPRPRPMHWPRP the “shrunken log2 fold change” value was 0.0477. In the case of RRIRIRPPRLPRPRPRPDTIPRP, the “shrunken log2 fold change” value is reported as -0.0883. RRIRDRPPRLPRPRPRPVYEPRP was tested, and the “shrunken log2 fold change” value was -0.105. For RRIRARPPRLPRPRPRPYWYPRP, the “shrunken log2 fold change” value was -0.763. In the case of RRIRRRPPRLPRPRPRPYWMPRP, the “shrunken log2 fold change” value is reported as -0.205. For RRIRQRPPRLPRPRPRPCIVPRP, the “shrunken log2 fold change” value was -0.747. In the case of RRIRSRPPRLPRPRPRPHAIPRP, the “shrunken log2 fold change” value is reported as -0.144. For RRIRCRPPRLPRPRPRPPFTPRP, the “shrunken log2 fold change” value was -0.15. For RRIRNRPPRLPRPRPRPTYYPRP, the “shrunken log2 fold change” value was -0.325. With RRIRCRPPRLPRPRPRPRTIPRP the “shrunken log2 fold change” value was -0.154. With RRIRDRPPRLPRPRPRPSWGPRP the “shrunken log2 fold change” value was 0.0384. In the case of RRIRHRPPRLPRPRPRPGSRPRP, the “shrunken log2 fold change” value is reported as -0.168. With RRIRPRPPRLPRPRPRPMIIPRP the “shrunken log2 fold change” value was -0.152. With RRIRGRPPRLPRPRPRPQFMPRP the “shrunken log2 fold change” value was 0.0535. For RRIRLRPPRLPRPRPRPQQEPRP, the “shrunken log2 fold change” value was 0.0119. With RRIRSRPPRLPRPRPRPDWLPRP the “shrunken log2 fold change” value was 0.153. In the case of RRIRWRPPRLPRPRPRPESYPRP, the “shrunken log2 fold change” value is reported as -0.134. For RRIRLRPPRLPRPRPRPADKPRP, the “shrunken log2 fold change” value was 0.122. For RRIRQRPPRLPRPRPRPGSPPRP, the “shrunken log2 fold change” value was -0.232. In the case of RRIRFRPPRLPRPRPRPTDMPRP, the “shrunken log2 fold change” value is reported as 0.0617. With RRIRTRPPRLPRPRPRPKVTPRP the “shrunken log2 fold change” value was -0.026. In the case of RRIRDRPPRLPRPRPRPNWFPRP, the “shrunken log2 fold change” value is reported as -0.0729. In the case of RRIRMRPPRLPRPRPRPKWKPRP, the “shrunken log2 fold change” value is reported as 0.195. With RRIRYRPPRLPRPRPRPDMNPRP the “shrunken log2 fold change” value was 0.00911. In the case of RRIRSRPPRLPRPRPRPIFCPRP, the “shrunken log2 fold change” value is reported as -0.0166. With RRIRNRPPRLPRPRPRPMCLPRP the “shrunken log2 fold change” value was -0.0215. In the case of RRIRGRPPRLPRPRPRPCKSPRP, the “shrunken log2 fold change” value is reported as -0.00288. In the case of RRIRYRPPRLPRPRPRPTQRPRP, the “shrunken log2 fold change” value is reported as -0.164. With RRIRIRPPRLPRPRPRPNKAPRP the “shrunken log2 fold change” value was 0.0028. In the case of RRIRFRPPRLPRPRPRPQAYPRP, the “shrunken log2 fold change” value is reported as -0.0572. With RRIRKRPPRLPRPRPRPDIKPRP the “shrunken log2 fold change” value was 0.137. In the case of RRIRNRPPRLPRPRPRPSRKPRP, the “shrunken log2 fold change” value is reported as -0.21. RRIRHRPPRLPRPRPRPMCNPRP was tested, and the “shrunken log2 fold change” value was -0.186. For RRIRIRPPRLPRPRPRPCMWPRP, the “shrunken log2 fold change” value was -1.51. With RRIRMRPPRLPRPRPRPPYWPRP the “shrunken log2 fold change” value was 0.37. With RRIRDRPPRLPRPRPRPPWNPRP the “shrunken log2 fold change” value was -0.0258. With RRIRTRPPRLPRPRPRPAKAPRP the “shrunken log2 fold change” value was -0.0213. In the case of RRIRQRPPRLPRPRPRPAQHPRP, the “shrunken log2 fold change” value is reported as 0.189. RRIRERPPRLPRPRPRPARYPRP was tested, and the “shrunken log2 fold change” value was 0.24. With RRIRERPPRLPRPRPRPIFGPRP the “shrunken log2 fold change” value was -0.112. With RRIRFRPPRLPRPRPRPMLMPRP the “shrunken log2 fold change” value was -0.0715. RRIRLRPPRLPRPRPRPNSHPRP was tested, and the “shrunken log2 fold change” value was -0.404. In the case of RRIRGRPPRLPRPRPRPEDEPRP, the “shrunken log2 fold change” value is reported as 0.0631. For RRIRVRPPRLPRPRPRPVTEPRP, the “shrunken log2 fold change” value was -0.164. RRIRHRPPRLPRPRPRPNNNPRP was tested, and the “shrunken log2 fold change” value was -1.09. For RRIRRRPPRLPRPRPRPCQEPRP, the “shrunken log2 fold change” value was 0.139. In the case of RRIRRRPPRLPRPRPRPVAEPRP, the “shrunken log2 fold change” value is reported as 0.663. RRIRWRPPRLPRPRPRPQMEPRP was tested, and the “shrunken log2 fold change” value was 0.0344. With RRIRARPPRLPRPRPRPFMHPRP the “shrunken log2 fold change” value was 0.229. RRIRSRPPRLPRPRPRPTQSPRP was tested, and the “shrunken log2 fold change” value was 0.449. With RRIRLRPPRLPRPRPRPCMQPRP the “shrunken log2 fold change” value was -0.154. With RRIRQRPPRLPRPRPRPRYWPRP the “shrunken log2 fold change” value was -0.0336. For RRIRTRPPRLPRPRPRPSWGPRP, the “shrunken log2 fold change” value was -0.179. In the case of RRIRGRPPRLPRPRPRPPKTPRP, the “shrunken log2 fold change” value is reported as 1.15. RRIRKRPPRLPRPRPRPRKGPRP was tested, and the “shrunken log2 fold change” value was -0.0408. RRIRRRPPRLPRPRPRPCNMPRP was tested, and the “shrunken log2 fold change” value was -0.152. RRIRTRPPRLPRPRPRPMNDPRP was tested, and the “shrunken log2 fold change” value was -0.0997. RRIRLRPPRLPRPRPRPDVNPRP was tested, and the “shrunken log2 fold change” value was -0.137. With RRIRQRPPRLPRPRPRPWCFPRP the “shrunken log2 fold change” value was -0.263. In the case of RRIRMRPPRLPRPRPRPYYCPRP, the “shrunken log2 fold change” value is reported as -0.603. In the case of RRIRVRPPRLPRPRPRPYFDPRP, the “shrunken log2 fold change” value is reported as -0.609. In the case of RRIRARPPRLPRPRPRPHICPRP, the “shrunken log2 fold change” value is reported as -0.104. With RRIRGRPPRLPRPRPRPPTYPRP the “shrunken log2 fold change” value was 0.206. For RRIRTRPPRLPRPRPRPFDIPRP, the “shrunken log2 fold change” value was -0.018. For RRIRERPPRLPRPRPRPAQGPRP, the “shrunken log2 fold change” value was 0.473. RRIRPRPPRLPRPRPRPAASPRP was tested, and the “shrunken log2 fold change” value was -0.0885. In the case of RRIRRRPPRLPRPRPRPPRDPRP, the “shrunken log2 fold change” value is reported as 1.48. For RRIRMRPPRLPRPRPRPWVRPRP, the “shrunken log2 fold change” value was 0.0882. In the case of RRIRKRPPRLPRPRPRPWNWPRP, the “shrunken log2 fold change” value is reported as -0.00973. In the case of RRIRCRPPRLPRPRPRPWSCPRP, the “shrunken log2 fold change” value is reported as -0.739. RRIRSRPPRLPRPRPRPIIVPRP was tested, and the “shrunken log2 fold change” value was 0.0771. With RRIRSRPPRLPRPRPRPHPTPRP the “shrunken log2 fold change” value was 0.129. RRIRNRPPRLPRPRPRPRMFPRP was tested, and the “shrunken log2 fold change” value was -0.362. With RRIRRRPPRLPRPRPRPVKQPRP the “shrunken log2 fold change” value was -0.0104. For RRIRARPPRLPRPRPRPCRIPRP, the “shrunken log2 fold change” value was -0.0344. RRIRERPPRLPRPRPRPVECPRP was tested, and the “shrunken log2 fold change” value was -0.152. RRIRMRPPRLPRPRPRPEGTPRP was tested, and the “shrunken log2 fold change” value was 0.0716. In the case of RRIRERPPRLPRPRPRPSAHPRP, the “shrunken log2 fold change” value is reported as 0.131. In the case of RRIRHRPPRLPRPRPRPLMPPRP, the “shrunken log2 fold change” value is reported as -0.107. For RRIRWRPPRLPRPRPRPFAEPRP, the “shrunken log2 fold change” value was 0.801. In the case of RRIRLRPPRLPRPRPRPKQAPRP, the “shrunken log2 fold change” value is reported as 0.152. For RRIRCRPPRLPRPRPRPIYCPRP, the “shrunken log2 fold change” value was -0.14. RRIRRRPPRLPRPRPRPAMAPRP was tested, and the “shrunken log2 fold change” value was 0.342. With RRIRRRPPRLPRPRPRPMCCPRP the “shrunken log2 fold change” value was -0.0111. With RRIRERPPRLPRPRPRPLNVPRP the “shrunken log2 fold change” value was -0.0706.
